T1: His-Sec15^1–300 (C. albicans, UniProt A0A1D8PM29 1-300)
T1 construct: Sec15, exocyst component of Candida albicans, amino acids 1 to 300; Subcloned into pET21-a (Novagen); also called His6-Sec15^1–300; source: E. coli, purified
T1 sequence (looked up): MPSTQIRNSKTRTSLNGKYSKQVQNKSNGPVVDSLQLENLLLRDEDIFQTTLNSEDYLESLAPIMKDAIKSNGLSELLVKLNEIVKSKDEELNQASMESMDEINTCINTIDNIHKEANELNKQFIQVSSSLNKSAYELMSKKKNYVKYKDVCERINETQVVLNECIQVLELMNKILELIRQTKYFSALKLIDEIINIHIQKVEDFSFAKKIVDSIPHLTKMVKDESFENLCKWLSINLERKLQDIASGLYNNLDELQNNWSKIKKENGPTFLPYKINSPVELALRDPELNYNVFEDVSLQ

T2: His-Sec15^1–549 (C. albicans, UniProt A0A1D8PM29 1-549)
T2 construct: Sec15, exocyst component of Candida albicans, amino acids 1 to 549; Subcloned into pET21-a (Novagen); also called His6-Sec15^1–549; source: E. coli, purified
T2 sequence (looked up): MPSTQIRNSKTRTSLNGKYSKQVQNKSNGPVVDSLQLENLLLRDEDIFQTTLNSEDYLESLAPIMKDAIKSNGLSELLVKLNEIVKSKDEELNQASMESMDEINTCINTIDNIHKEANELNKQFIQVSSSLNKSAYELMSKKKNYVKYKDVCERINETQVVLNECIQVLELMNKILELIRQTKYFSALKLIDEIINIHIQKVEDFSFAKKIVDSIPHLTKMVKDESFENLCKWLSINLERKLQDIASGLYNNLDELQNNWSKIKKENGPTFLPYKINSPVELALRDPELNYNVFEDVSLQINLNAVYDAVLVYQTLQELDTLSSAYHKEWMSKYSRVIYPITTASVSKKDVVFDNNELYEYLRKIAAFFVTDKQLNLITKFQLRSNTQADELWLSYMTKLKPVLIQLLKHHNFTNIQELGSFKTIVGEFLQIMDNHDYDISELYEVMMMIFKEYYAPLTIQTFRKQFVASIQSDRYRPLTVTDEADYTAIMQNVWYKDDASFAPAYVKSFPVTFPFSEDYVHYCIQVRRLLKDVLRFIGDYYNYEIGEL

T3: GST-Sec15^550–892 (C. albicans, UniProt A0A1D8PM29 550-892)
T3 construct: The methods say only that similar strategies as for Sec15 and Rsr1 were used; source: E. coli, purified
T3 sequence (looked up): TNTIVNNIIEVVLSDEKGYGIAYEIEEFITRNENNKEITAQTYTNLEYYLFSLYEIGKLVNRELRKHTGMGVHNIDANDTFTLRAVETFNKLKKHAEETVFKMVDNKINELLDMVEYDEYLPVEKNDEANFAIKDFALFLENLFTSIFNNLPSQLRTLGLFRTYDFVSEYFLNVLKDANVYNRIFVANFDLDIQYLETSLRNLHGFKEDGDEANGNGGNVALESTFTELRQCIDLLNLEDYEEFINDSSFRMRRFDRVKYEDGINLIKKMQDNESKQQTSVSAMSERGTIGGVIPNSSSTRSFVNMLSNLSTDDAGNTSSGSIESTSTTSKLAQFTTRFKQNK


How the values were obtained:
Test in all cases: pull-down; GST fusion protein immobilised on glutathione-Sepharose beads (20 μl), incubated with 20 μg of purified His-tagged protein in 200 μl binding buffer (1× PBS, 1 mg/ml ovalbumin, 10 mM β-mercaptoethanol, 0.1% IGPAL-30), 1 hour at room temperature; four washes; anti-His blot
Conditions in all cases: both partners purified
His-Sec15^1–300 = target: T1, His-Sec15^1–300
His-Sec15^1–549 = target: T2, His-Sec15^1–549
GST-Sec15^550–892 = target: T3, GST-Sec15^550–892

Row | Binder | binding result (His-Sec15^1–300) | binding result (His-Sec15^1–549) | binding result (GST-Sec15^550–892)
1 | GST-Rsr1^K16N (GDP-locked form of Rsr1) (natural protein, Rsr1, Ras-family GTPase of Candida albicans; GDP-locked mutant K16N; Made with the pGEX vector system (Amersham Biosciences), which normally places GST at the N-terminus; also called Rsr1-GDP; recombinant Rsr1^K16N) MRDYKVVVLGAGGVGNSSITVQFVQGVYVESYDPTIEDSYRKQIEVDGRACDLEILDTAGVAQFTAMRELYIKSGKGFLLVYSVTDENSLKELLALREQVLRIKDSDNVPMVLVGNKCDLEDDRVLSIEDGVKVSQDWGLVPFYETSAMYKTNVDEAFIDVVRQIMRKEAAISAEKKQQKELQKQQQQQQQEQDAEGQQQQQKSGKSKSSATQKDATADGQTDVNARLKQSINDHPKSSSGSKFCTII | binds | binds | 
2 | His-Bem1^1–300 (domain or fragment, C. albicans, UniProt A0A1D8PLB6 1-300, looked up, Bem1, polarity determinant of Candida albicans, N-terminal 300 amino acids; also called His6-Bem1^1–300; N-terminal 300 amino acids of Bem1; source: similar strategies as for the E. coli proteins) MIKTFRKSKRSSSNSSSPKKTISRVSSTSSNQTSHDGILQSPKKVIRALYDYEPQGPGELKFFKGDFFHVLDDVDDELHKEAEANGWIEATNPMTQLKGMVPISYFEIFDRSRPTVTASSNSFTNSIDIQHQHQHQQGIHNGTGNRNLNQTLYAVTLYEFKAERDDELDIMPNENLIICAHHDYEWFIAKPINRLGGPGLVPVSYVKIIDLLNPNSHYTSIDTSRRSQVIQVINGFNIPTVEQWKNQTAKYQASTIPLGSISGSGTPPTSANSQYFDNHTMTSNRSSSGSSISIVEASVD |  |  | binds
